Data published in the supplement of paper PMC12764529.
± gives the half width of the 95% confidence interval.

How the values were obtained:
[1] = folding stability dG unfold (combined trypsin and chymotrypsin); higher = more stable
Summary of the method: (§1)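 Mini-proteins designed to be under 80 residues and free of cysteine were carried in a PA-tagged cDNA display construct and digested with trypsin and with chymotrypsin. Each protease was applied at 11 threefold-diluted concentrations, alongside a no-protease condition, before sequencing. K50 came from Bayesian fitting of the sequencing counts, and unfolding free energy was obtained by comparing it with a sequence-predicted unfolded-state K50 and a shared folded-state K50, for each protease separately or for both together. Designs were retained only if their AlphaFold2 dimer inter-PAE exceeded 15.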

[2] = folding stability dG unfold from trypsin proteolysis; higher = more stable
Summary of the method: as §1

[3] = folding stability dG unfold from chymotrypsin proteolysis; higher = more stable
Summary of the method: as §1

Row | Sequence | folding stability dG unfold [1] | folding stability dG unfold [2] | folding stability dG unfold [3]
1 | SAGGSAGGKKVYEIKGLTPEQIRALVKENKGKVTIYYKDGKKEEKTIKEGDEIAPGETVYIEVESAGGSAGG [r6_303_TrROS_Hall] | 1.56 ± 0.21 kcal/mol | 0.858 ± 0.11 kcal/mol | 1.74 ± 0.13 kcal/mol
2 | SAGGSAGGKLENLPENVTEVRIEKNENGEYTIYVRNKETNEYVKLKVEKKDGEWKIVEKEVFPKSAGGSAGG [r6_937_TrROS_Hall] | 2.74 ± 0.26 kcal/mol | 2.09 ± 0.12 kcal/mol | 3.02 ± 0.047 kcal/mol
3 | SAGGSAGGKLPKNIEKIEFNKKTNIIKVKVKSLEDLKKLAEKLNFEIVSVEEKDGYIYIKIKKKSAGGSAGG [r6_380_TrROS_Hall] | 2.47 ± 0.081 kcal/mol | 1.86 ± 0.038 kcal/mol | 2.796 ± 0.027 kcal/mol
4 | SAGGSAGGKLVLKIKIYNKKTKKVYEFEIEADSLEELKEALKKLGLPKDVKIVSVELRPLDEEPSAGGSAGG [r6_23_TrROS_Hall] | 4.79 ± 0.092 kcal/mol | 3.65 ± 0.1 kcal/mol | 4.96 ± 0.075 kcal/mol
5 | SAGGSAGGKNWRTIPFMIWIPPGAPPIEFEIPLPDGWKVEIEISVVRNPDGWYFIMFSITVQPDSAGGSAGG [r6_510_TrROS] | 3.81 ± 0.22 kcal/mol | 3.12 ± 0.28 kcal/mol | 3.85 ± 0.17 kcal/mol
6 | SAGGSAGGKPKPVLRTFEVRDPATGELYKVELVVLDDGSVRALVTRRDGRKREFTFDAPASLILSAGGSAGG [r6_588_TrMRF] | 1.88 ± 0.047 kcal/mol | 1.59 ± 0.019 kcal/mol | 2.08 ± 0.042 kcal/mol
7 | SAGGSAGGKRKIEIHIIIPPGMPPEWRKKAIEIAKWFAKTLAQENNREVEIKIEIFVLDGMPPWSAGGSAGG [r6_204_TrROS] | 3.6 ± 0.33 kcal/mol | 2.82 ± 0.19 kcal/mol | 3.71 ± 0.076 kcal/mol
8 | SAGGSAGGKRTVQIQFPMGPQWLDKLRDAFPNVDIEELEYDEGPGWHRIKIKVDSPEKIRDFIKSAGGSAGG [r6_334_TrROS] | 0.991 ± 0.18 kcal/mol | 0.63 ± 0.19 kcal/mol | 1.41 ± 0.079 kcal/mol
9 | SAGGSAGGKTISIPGSIEEIQEKLGGPIDEVEHNKPGSGSYKPKNGKPITIHFDSPEDILDFFKSAGGSAGG [r6_19_TrROS] | 0.206 ± 0.12 kcal/mol | 0.318 ± 0.032 kcal/mol | -0.0753 ± 0.15 kcal/mol
10 | SAGGSAGGKTIVIDMSIEEIAKKLGLEIVEVKKNKDGSVTITLKNGKKITIKVKSPEDLLKAIKSAGGSAGG [r6_13_TrROS_Hall] | 2.54 ± 0.29 kcal/mol | 1.65 ± 0.11 kcal/mol | 3.03 ± 0.15 kcal/mol
11 | SAGGSAGGKTYIVKIVVKNKNGEELELTLEVETEEEAKEAAEELAKKLEEAGYEIVKVEIKKLPSAGGSAGG [r6_869_TrROS_Hall] | 4.02 ± 0.2 kcal/mol | 3.64 ± 0.27 kcal/mol | 4.11 ± 0.14 kcal/mol
12 | SAGGSAGGKVKFEIPNAKITSVEYDPNPGLLKVEFELPNGLKLTAIFKIDKDKAILAKIEISPESAGGSAGG [r6_718_TrMRF] | 3.23 ± 0.081 kcal/mol | 2.57 ± 0.071 kcal/mol | 3.51 ± 0.045 kcal/mol
13 | SAGGSAGGLEIAKELGFEKIEIEEVKENRVVLKLKDKNGKEYKIEFEFDPETGEIKILKIEPLPSAGGSAGG [r6_526_TrMRF] | 4.12 ± 0.13 kcal/mol | 3.1 ± 0.21 kcal/mol | 4.19 ± 0.1 kcal/mol
14 | SAGGSAGGLKEALKLAEELGAKPHVVKTKGNSEIVFLELKDGRKIRLLVENGKIKEIIPIPETPSAGGSAGG [r6_548_TrMRF] | 2.08 ± 0.17 kcal/mol | 1.86 ± 0.065 kcal/mol | 2.39 ± 0.065 kcal/mol
15 | SAGGSAGGLKPGEEWLILFRIDIEIEPMPPNMSPDMAKRFPNMYHIEVKIDILIIPAEDLKELFSAGGSAGG [r6_831_TrROS] | 3.51 ± 0.13 kcal/mol | 3.17 ± 0.13 kcal/mol | 3.74 ± 0.042 kcal/mol
16 | SAGGSAGGMARVLRVEPAEGDDTFYVEVEFYDPATGEVTLGRFRIPADRPDLATNIPADSWVVLSAGGSAGG [r6_978_TrMRF] | 1.25 ± 0.046 kcal/mol | 0.66 ± 0.04 kcal/mol | 1.56 ± 0.059 kcal/mol
17 | SAGGSAGGMEIRIEKDENGFLRLKVINKKTKKETEIEIPVEDEDALKKLLDAGVERVEIEPLPPSAGGSAGG [r6_639_TrROS_Hall] | 1.14 ± 0.21 kcal/mol | 0.399 ± 0.13 kcal/mol | 1.34 ± 0.08 kcal/mol
18 | SAGGSAGGMEKYKVTITIERPDPNNPDVKTTEVTEVVLTPEEIEKLKKELAPTGYRVEITVIDESAGGSAGG [r6_857_JUSTAS] | 2.45 ± 0.15 kcal/mol | 2.6 ± 0.14 kcal/mol | 2.51 ± 0.086 kcal/mol
19 | SAGGSAGGMEVPPDQRVLVLDVEGTPEAIEAFAEELVRRGFDKPVAVVAVDPETGKVTIVVPEDSAGGSAGG [r6_652_TrMRF] | 1.08 ± 0.11 kcal/mol | 0.771 ± 0.05 kcal/mol | 1.06 ± 0.1 kcal/mol
20 | SAGGSAGGMFYVVRLEGPDGPLRTLVRPAESLEEARAFAEALAPEGARVTVEPLEEEEAERLLGSAGGSAGG [r6_267_TrMRF] | 2.13 ± 0.065 kcal/mol | 1.07 ± 0.057 kcal/mol | 2.54 ± 0.053 kcal/mol
21 | SAGGSAGGMHINAPGSIEELEEKLGGPIAEATLEGPGTFTLTLENGVPITVSFDDPEQLEELIESAGGSAGG [r6_13_TrMRF] | 0.387 ± 0.18 kcal/mol | 0.524 ± 0.059 kcal/mol | 0.243 ± 0.16 kcal/mol

Row | Sequence | folding stability dG unfold [1] | folding stability dG unfold [2] | folding stability dG unfold [3]
22 | SAGGSAGGMIEVESFPEIGYILVKAKSEKPEEIAKEVLEKFNVKEAVVFEDPEKPYVYILAKIDSAGGSAGG [r6_661_TrMRF] | 1.13 ± 0.21 kcal/mol | 0.97 ± 0.088 kcal/mol | 1.26 ± 0.21 kcal/mol
23 | SAGGSAGGMILLETEEGEPKAVILFELRDPLFGGEIPLEFLEELAEEIKEKFPEIKHIELIGLPSAGGSAGG [r6_793_TrMRF] | 1.31 ± 0.08 kcal/mol | 1.47 ± 0.047 kcal/mol | 1.1 ± 0.03 kcal/mol
24 | SAGGSAGGMIPVKTTETTTLPDGSTVVTESLTIIDPTSNTSTTTTLKTTIINTSTGTTIPPSSLSAGGSAGG [r6_866_JUSTAS] | 1 ± 0.079 kcal/mol | 1.38 ± 0.032 kcal/mol | 0.319 ± 0.073 kcal/mol
25 | SAGGSAGGMIVLPPGATVDFDPSVARLTVTVKDPNSDKSTTTTYDVPPTATVTSAPGTIVVNVPSAGGSAGG [r6_804_JUSTAS] | 0.171 ± 0.073 kcal/mol | -0.656 ± 0.14 kcal/mol | 0.476 ± 0.11 kcal/mol
26 | SAGGSAGGMKEGEEFEIELPDKYKVKIRVKDNIIEVEFPPGLRVRAEILENGEVKVYLPPELKPSAGGSAGG [r6_970_TrMRF] | 1.7 ± 0.21 kcal/mol | 2.04 ± 0.087 kcal/mol | 1.42 ± 0.048 kcal/mol
27 | SAGGSAGGMKIEPIAEDEDYIVVRVEPDLPELLEELGLEVVGVEEEGDYVIVVVKVPPEVREKFSAGGSAGG [r6_108_TrMRF] | 0.336 ± 0.11 kcal/mol | 0.649 ± 0.022 kcal/mol | -0.0352 ± 0.11 kcal/mol
28 | SAGGSAGGMKIKVKFTITKSDPNSDSPVPRVITKEFESLEEAEKEFNKLKNLPSGYTVEVEIVESAGGSAGG [r7_0_JUSTAS] | 3.62 ± 0.1 kcal/mol | 3.16 ± 0.11 kcal/mol | 3.82 ± 0.043 kcal/mol
29 | SAGGSAGGMKTITIELPPGPVRIRVRLAATGEEVTVEVDAETPTVTITIPEEGAEIVEIEIEPVSAGGSAGG [r6_977_TrROS_Hall] | 2.59 ± 0.18 kcal/mol | 2.06 ± 0.065 kcal/mol | 2.66 ± 0.13 kcal/mol
30 | SAGGSAGGMKTTTYTFPGTLEEAKALAEELVAALPPHAKEVTVEVTPDPATGTVTVTITVKELASAGGSAGG [r6_164_JUSTAS] | 3.46 ± 0.13 kcal/mol | 3.17 ± 0.19 kcal/mol | 3.63 ± 0.064 kcal/mol
31 | SAGGSAGGMKTVTTPVYAVMPEEEAEALAKELEEKYPNVEIEVEREELPDGRVRVTITVTKPLGSAGGSAGG [r6_105_JUSTAS] | 1.4 ± 0.067 kcal/mol | 1.19 ± 0.022 kcal/mol | 1.55 ± 0.054 kcal/mol
32 | SAGGSAGGMKVEVVFLVPGEVFSKFTPPLSEDDPVLLVLVFDVPAPPPVPRYVYDPETGEWRPESAGGSAGG [r6_211_TrMRF] | 3.22 ± 0.11 kcal/mol | 2.39 ± 0.047 kcal/mol | 3.72 ± 0.099 kcal/mol
33 | SAGGSAGGMKVIEIDLPDGSKLKIVIYKDGTLPAYLPEGNKVIVLEIDKNGKIKSVKVFDAKDISAGGSAGG [r6_81_TrMRF] | 3.21 ± 0.25 kcal/mol | 2.87 ± 0.16 kcal/mol | 3.52 ± 0.072 kcal/mol
34 | SAGGSAGGMKVKIKLGPGEEVEIEVVEDKETNKLYFKIVNKKTKKVYVFETLEEAKNMSLEELLSAGGSAGG [r6_739_TrROS_Hall] | 3.22 ± 0.12 kcal/mol | 1.78 ± 0.065 kcal/mol | 3.73 ± 0.07 kcal/mol
35 | SAGGSAGGMKVLATTEDGEVYLFDLSEFDLSFEEWLNLGEEELAELLRKAFPEKEITLELVEEPSAGGSAGG [r6_164_TrMRF] | 3.02 ± 0.077 kcal/mol | 2.5 ± 0.076 kcal/mol | 3.3 ± 0.047 kcal/mol
36 | SAGGSAGGMKVRVKIEVEGKTLEIEIEVPEEKREEALEKAKKLAEKLAEELDVEVKIVEVEEEPSAGGSAGG [r6_459_TrROS_Hall] | 2.01 ± 0.12 kcal/mol | 1.04 ± 0.034 kcal/mol | 2.41 ± 0.073 kcal/mol
37 | SAGGSAGGMKVYEIEVPPSSGLTPEEIRARVREEIEASNNAPVEVTVEVDPNGRLTVTIKITPLSAGGSAGG [r6_819_JUSTAS] | 1.49 ± 0.13 kcal/mol | 1.83 ± 0.036 kcal/mol | 1.28 ± 0.054 kcal/mol
38 | SAGGSAGGMKYLDVVLHPDTGATYSSLEEIKASSSGPFQIKTGDGKWIYLPVEELSSLPTPLASSAGGSAGG [r6_685_JUSTAS] | 0.247 ± 0.065 kcal/mol | 0.0571 ± 0.039 kcal/mol | 0.331 ± 0.048 kcal/mol
39 | SAGGSAGGMLLSSEEELEEELKRVREEGIGEVEVQVVDEKGNIHTLPTFVENPGPEPLPNEKLLSAGGSAGG [r6_258_JUSTAS] | 0.628 ± 0.13 kcal/mol | 0.558 ± 0.066 kcal/mol | 0.643 ± 0.049 kcal/mol
40 | SAGGSAGGMLRVRVETTLPGSGETLDLELEFPSEEEARRAIEALVPPEERAEVRVEFLPPGVPESAGGSAGG [r6_657_JUSTAS] | 1.06 ± 0.1 kcal/mol | -0.156 ± 0.37 kcal/mol | 1.44 ± 0.08 kcal/mol
41 | SAGGSAGGMLTFTFSLSEIPPYPSGSLSLEEVKKRMEPILRKLLGRKDVKIKVESLPDGTIRVTVESAGGSA [r15_562_JUSTAS] | 4.37 ± 0.27 kcal/mol | 3.95 ± 0.25 kcal/mol | 4.99 ± 0.23 kcal/mol
42 | SAGGSAGGMPAEWLDEIEAPPGNYRAELYKTEKEVRIIITLPNGEKLELTFEVKPDEEILVLPGSAGGSAGG [r6_379_TrMRF] | 2.05 ± 0.097 kcal/mol | 1.89 ± 0.057 kcal/mol | 2.12 ± 0.17 kcal/mol
